Where two headings read alike, the source gives them in different places.
Experiments:
[1] = target: T1, human CD137 expressed on cells (human, UniProt Q07011 24-255); assay: FACS on CHO cells expressing human CD137 (MFI)
T1 construct: whole, on cells; also called 4-1BB; TNFRSF9
Experimental: (§1) Anti-OX40/CD137 bi-specific antibodies were analyzed by FACS for their binding properties to human OX40 and/or human CD137 expressed on CHO cells. Briefly, cultured cells were harvested, counted and cell viability was evaluated using the Trypan Blue exclusion method. Viable cells were then adjusted to 2×10⁶ cells per mL in PBS containing 2% BSA. 100 μL of this cell suspension were further aliquoted per well into a V-bottom 96-well plate. […] After incubation for 2 hours at 4° C., cells were centrifuged (3 min, 1000×g), washed with 250 μL/well BSA-containing FACS Stain Buffer, resuspended and incubated for an additional 1 hour at 4° C. with 100 μL/well fluorochrome-conjugated anti-IgG antibody for detection of the bisepecific antibody. Cells were then washed with 250 μL/well BSA-containing FACS Stain Buffer, resuspended in 100 μL/well FACS Stain Buffer, acquired and analyzed using a FACS machine. Binding of the bispecific antibodies to human OX40 or human CD137 expressing CHO cells were evaluated and the mean fluorescence intensity is plotted in histograms or dot plots.

[2] = target: T2, human OX40 expressed on CHO cells (human, UniProt P43489 29-277); assay: FACS on CHO cells expressing human OX40 (MFI)
T2 construct: whole, on cells
T2 sequence (looked up): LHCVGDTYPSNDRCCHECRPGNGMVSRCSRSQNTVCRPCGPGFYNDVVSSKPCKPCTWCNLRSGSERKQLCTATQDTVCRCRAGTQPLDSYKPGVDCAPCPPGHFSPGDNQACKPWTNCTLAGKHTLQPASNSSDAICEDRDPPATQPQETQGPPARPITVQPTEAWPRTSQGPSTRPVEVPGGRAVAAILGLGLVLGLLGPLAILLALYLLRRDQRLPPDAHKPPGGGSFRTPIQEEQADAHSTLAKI
Experimental: as §1

[3] = target: T1, human CD137 expressed on cells; assay: FACS on CHO cells expressing human CD137 (MFI); remark: listed apart in the source
Experimental: as §1

T1 sequence (Q07011 24-255): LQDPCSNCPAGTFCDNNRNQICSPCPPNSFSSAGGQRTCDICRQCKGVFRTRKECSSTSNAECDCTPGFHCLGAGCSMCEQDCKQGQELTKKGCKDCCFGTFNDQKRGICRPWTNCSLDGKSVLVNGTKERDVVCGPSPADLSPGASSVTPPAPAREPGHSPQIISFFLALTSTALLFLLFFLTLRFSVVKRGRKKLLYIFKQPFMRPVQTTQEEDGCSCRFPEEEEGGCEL

B1: Ly766 (bispecific antibody, human IgG1, kappa)
heavy: EVQLVQSGAEVKKPGASVKVSCKASGYTFTDSYMSWVRQAPGQGLEWIGDMYPDNGDSSYNQKFRERVTITRDTSTSTAYLELSSLRSEDTAVYYCVLAPRWYFSVWGQGTLVTVSSASTKGPSVFPLAPSSKSTSGGTAALGCLVKDYFPEPVTVSWNSGALTSGVHTFPAVLQSSGLYSLSSVVTVPSSSLGTQTYICNVNHKPSNTKVDKKVEPKSCDKTHTCPPCPAPELLGPSVFLFPPKPKDTLMISRTPEVTCVVVDVSHEDPEVKFNWYVDGVEVHNAKTKPREEQYNSTYRVVSVLTVLHQDWLNGKEYKCKVSNKALPAPIEKTISKAKGQPREPQVYTLPPSREEMTKNQVSLTCLVKGFYPSDIAVEWESNGQPENNYKTTPPVLDSDGSFFLYSKLTVDKSRWQQGNVFSCSVMHEALHNHYTQKSLSLSPGGGGGSGGGGSGGGGSGGGGSDIQMTQSPSSLSASVGDRVTITCRASQDIRSNLNWYQQKPGGAVKLLIYYTSRLHSGVPSRFSGSGSGTDYTLTISSLQPEDFATYFCQQSEKLPRTFGGGTKVEIRGGGGSGGGGSGGGGSGGGGSQVQLVQSGAEVKKPGASVKVSCKASGYTFAGFEMHWVRQAPGQGLEWMGAIDPKTGGTDYNQKFKDRVTMTRDTSISTAYMELSRLRSDDTAVYYCARDLGYFDVWGQGTLVTVSS
light: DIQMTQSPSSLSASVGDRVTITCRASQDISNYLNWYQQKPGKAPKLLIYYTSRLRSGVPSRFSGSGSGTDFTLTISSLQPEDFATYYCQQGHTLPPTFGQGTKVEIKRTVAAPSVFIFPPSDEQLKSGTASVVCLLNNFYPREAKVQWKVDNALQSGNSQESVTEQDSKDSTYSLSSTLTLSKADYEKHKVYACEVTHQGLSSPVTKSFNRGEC
notes: Anti-OX40/CD137: Ly598-derived heavy chain fused to Ly1630 scFv (VL-VH); Ly598 light chain
- EC50 (read off the curve) [1]: ~0.2 µg/mL
- EC50 (read off the curve) [2]: ~0.4 µg/mL

B2: Ly768 (bispecific antibody, human IgG1, kappa)
heavy: EVQLVQSGAEVKKPGASVKVSCKASGYTFTDSYMSWVRQAPGQGLEWIGDMYPDNGDSSYNQKFRERVTITRDTSTSTAYLELSSLRSEDTAVYYCVLAPRWYFSVWGQGTLVTVSSASTKGPSVFPLAPSSKSTSGGTAALGCLVKDYFPEPVTVSWNSGALTSGVHTFPAVLQSSGLYSLSSVVTVPSSSLGTQTYICNVNHKPSNTKVDKKVEPKSCDKTHTCPPCPAPELLGPSVFLFPPKPKDTLMISRTPEVTCVVVDVSHEDPEVKFNWYVDGVEVHNAKTKPREEQYNSTYRVVSVLTVLHQDWLNGKEYKCKVSNKALPAPIEKTISKAKGQPREPQVYTLPPSREEMTKNQVSLTCLVKGFYPSDIAVEWESNGQPENNYKTTPPVLDSDGSFFLYSKLTVDKSRWQQGNVFSCSVMHEALHNHYTQKSLSLSPGK
light: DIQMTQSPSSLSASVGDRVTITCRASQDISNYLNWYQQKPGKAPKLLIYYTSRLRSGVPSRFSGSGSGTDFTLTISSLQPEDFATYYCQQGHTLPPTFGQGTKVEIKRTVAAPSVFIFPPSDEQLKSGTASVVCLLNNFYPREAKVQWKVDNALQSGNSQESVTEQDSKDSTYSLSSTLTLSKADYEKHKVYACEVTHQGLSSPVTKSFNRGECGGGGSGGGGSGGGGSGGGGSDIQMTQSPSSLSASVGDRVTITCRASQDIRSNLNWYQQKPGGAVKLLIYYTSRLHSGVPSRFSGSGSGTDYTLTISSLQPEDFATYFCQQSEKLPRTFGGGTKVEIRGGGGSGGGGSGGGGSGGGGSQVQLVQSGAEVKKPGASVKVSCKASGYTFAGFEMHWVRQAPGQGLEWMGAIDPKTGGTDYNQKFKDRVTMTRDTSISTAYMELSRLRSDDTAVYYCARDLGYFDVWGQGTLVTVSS
notes: Anti-OX40/CD137: Ly598-derived heavy chain
- EC50 (read off the curve) [1]: ~0.3 µg/mL
- binding result [2]: binds

B3: Ly769 (bispecific antibody, human IgG1, kappa)
heavy: B2 heavy
light: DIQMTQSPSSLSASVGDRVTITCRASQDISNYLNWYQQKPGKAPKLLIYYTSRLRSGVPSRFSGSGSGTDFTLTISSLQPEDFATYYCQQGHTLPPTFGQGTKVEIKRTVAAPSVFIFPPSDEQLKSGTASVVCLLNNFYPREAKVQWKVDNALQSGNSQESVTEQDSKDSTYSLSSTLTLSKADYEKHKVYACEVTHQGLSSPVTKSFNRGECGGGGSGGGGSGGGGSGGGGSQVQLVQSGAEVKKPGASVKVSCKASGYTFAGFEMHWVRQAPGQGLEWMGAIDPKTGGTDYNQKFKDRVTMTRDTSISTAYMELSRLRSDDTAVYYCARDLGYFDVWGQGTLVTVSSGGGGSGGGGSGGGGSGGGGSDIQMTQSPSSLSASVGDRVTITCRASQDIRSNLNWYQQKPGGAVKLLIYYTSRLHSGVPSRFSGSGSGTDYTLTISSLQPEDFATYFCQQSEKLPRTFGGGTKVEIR
notes: as for B2
- EC50 (read off the curve) [1]: ~0.6 µg/mL
- binding result [2]: binds

B4: Ly763 (bispecific antibody, human IgG1, kappa)
heavy: QVQLVQSGAEVKKPGASVKVSCKASGYTFAGFEMHWVRQAPGQGLEWMGAIDPKTGGTDYNQKFKDRVTMTRDTSISTAYMELSRLRSDDTAVYYCARDLGYFDVWGQGTLVTVSSASTKGPSVFPLAPSSKSTSGGTAALGCLVKDYFPEPVTVSWNSGALTSGVHTFPAVLQSSGLYSLSSVVTVPSSSLGTQTYICNVNHKPSNTKVDKKVEPKSCDKTHTCPPCPAPELLGPSVFLFPPKPKDTLMISRTPEVTCVVVDVSHEDPEVKFNWYVDGVEVHNAKTKPREEQYNSTYRVVSVLTVLHQDWLNGKEYKCKVSNKALPAPIEKTISKAKGQPREPQVYTLPPSREEMTKNQVSLTCLVKGFYPSDIAVEWESNGQPENNYKTTPPVLDSDGSFFLYSKLTVDKSRWQQGNVFSCSVMHEALHNHYTQKSLSLSPGGGGGSGGGGSGGGGSGGGGSEVQLVQSGAEVKKPGASVKVSCKASGYTFTDSYMSWVRQAPGQGLEWIGDMYPDNGDSSYNQKFRERVTITRDTSTSTAYLELSSLRSEDTAVYYCVLAPRWYFSVWGQGTLVTVSSGGGGSGGGGSGGGGSGGGGSDIQMTQSPSSLSASVGDRVTITCRASQDISNYLNWYQQKPGKAPKLLIYYTSRLRSGVPSRFSGSGSGTDFTLTISSLQPEDFATYYCQQGHTLPPTFGQGTKVEIK
light: DIQMTQSPSSLSASVGDRVTITCRASQDIRSNLNWYQQKPGGAVKLLIYYTSRLHSGVPSRFSGSGSGTDYTLTISSLQPEDFATYFCQQSEKLPRTFGGGTKVEIRRTVAAPSVFIFPPSDEQLKSGTASVVCLLNNFYPREAKVQWKVDNALQSGNSQESVTEQDSKDSTYSLSSTLTLSKADYEKHKVYACEVTHQGLSSPVTKSFNRGEC
notes: Ly1630 light chain
- binding result [2]: binds
- EC50 (read off the curve) [3]: ~0.1 µg/mL

B5: Ly767 (bispecific antibody, human IgG1, kappa)
heavy: EVQLVQSGAEVKKPGASVKVSCKASGYTFTDSYMSWVRQAPGQGLEWIGDMYPDNGDSSYNQKFRERVTITRDTSTSTAYLELSSLRSEDTAVYYCVLAPRWYFSVWGQGTLVTVSSASTKGPSVFPLAPSSKSTSGGTAALGCLVKDYFPEPVTVSWNSGALTSGVHTFPAVLQSSGLYSLSSVVTVPSSSLGTQTYICNVNHKPSNTKVDKKVEPKSCDKTHTCPPCPAPELLGPSVFLFPPKPKDTLMISRTPEVTCVVVDVSHEDPEVKFNWYVDGVEVHNAKTKPREEQYNSTYRVVSVLTVLHQDWLNGKEYKCKVSNKALPAPIEKTISKAKGQPREPQVYTLPPSREEMTKNQVSLTCLVKGFYPSDIAVEWESNGQPENNYKTTPPVLDSDGSFFLYSKLTVDKSRWQQGNVFSCSVMHEALHNHYTQKSLSLSPGGGGGSGGGGSGGGGSGGGGSQVQLVQSGAEVKKPGASVKVSCKASGYTFAGFEMHWVRQAPGQGLEWMGAIDPKTGGTDYNQKFKDRVTMTRDTSISTAYMELSRLRSDDTAVYYCARDLGYFDVWGQGTLVTVSSGGGGSGGGGSGGGGSGGGGSDIQMTQSPSSLSASVGDRVTITCRASQDIRSNLNWYQQKPGGAVKLLIYYTSRLHSGVPSRFSGSGSGTDYTLTISSLQPEDFATYFCQQSEKLPRTFGGGTKVEIR
light: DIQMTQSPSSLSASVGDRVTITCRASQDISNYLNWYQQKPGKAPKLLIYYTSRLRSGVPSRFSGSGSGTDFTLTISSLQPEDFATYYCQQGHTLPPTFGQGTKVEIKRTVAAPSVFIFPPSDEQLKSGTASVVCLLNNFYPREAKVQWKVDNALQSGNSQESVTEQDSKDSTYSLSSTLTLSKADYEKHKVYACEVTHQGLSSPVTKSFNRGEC
notes: Anti-OX40/CD137: Ly598-derived heavy chain fused to Ly1630 scFv (VH-VL); Ly598 light chain
- EC50 (read off the curve) [1]: ~0.3 µg/mL
- EC50 (read off the curve) [2]: ~0.4 µg/mL

B6: Ly764 (bispecific antibody, human IgG1, kappa)
heavy: QVQLVQSGAEVKKPGASVKVSCKASGYTFAGFEMHWVRQAPGQGLEWMGAIDPKTGGTDYNQKFKDRVTMTRDTSISTAYMELSRLRSDDTAVYYCARDLGYFDVWGQGTLVTVSSASTKGPSVFPLAPSSKSTSGGTAALGCLVKDYFPEPVTVSWNSGALTSGVHTFPAVLQSSGLYSLSSVVTVPSSSLGTQTYICNVNHKPSNTKVDKKVEPKSCDKTHTCPPCPAPELLGPSVFLFPPKPKDTLMISRTPEVTCVVVDVSHEDPEVKFNWYVDGVEVHNAKTKPREEQYNSTYRVVSVLTVLHQDWLNGKEYKCKVSNKALPAPIEKTISKAKGQPREPQVYTLPPSREEMTKNQVSLTCLVKGFYPSDIAVEWESNGQPENNYKTTPPVLDSDGSFFLYSKLTVDKSRWQQGNVFSCSVMHEALHNHYTQKSLSLSPGK
light: DIQMTQSPSSLSASVGDRVTITCRASQDIRSNLNWYQQKPGGAVKLLIYYTSRLHSGVPSRFSGSGSGTDYTLTISSLQPEDFATYFCQQSEKLPRTFGGGTKVEIRRTVAAPSVFIFPPSDEQLKSGTASVVCLLNNFYPREAKVQWKVDNALQSGNSQESVTEQDSKDSTYSLSSTLTLSKADYEKHKVYACEVTHQGLSSPVTKSFNRGECGGGGSGGGGSGGGGSGGGGSDIQMTQSPSSLSASVGDRVTITCRASQDISNYLNWYQQKPGKAPKLLIYYTSRLRSGVPSRFSGSGSGTDFTLTISSLQPEDFATYYCQQGHTLPPTFGQGTKVEIKGGGGSGGGGSGGGGSGGGGSEVQLVQSGAEVKKPGASVKVSCKASGYTFTDSYMSWVRQAPGQGLEWIGDMYPDNGDSSYNQKFRERVTITRDTSTSTAYLELSSLRSEDTAVYYCVLAPRWYFSVWGQGTLVTVSS
notes: Anti-OX40/CD137: Ly1630 heavy chain
- EC50 (read off the curve) [2]: ~0.9 µg/mL
- EC50 (read off the curve) [3]: ~0.2 µg/mL

B7: Ly765 (bispecific antibody, human IgG1, kappa)
heavy: B6 heavy
light: DIQMTQSPSSLSASVGDRVTITCRASQDIRSNLNWYQQKPGGAVKLLIYYTSRLHSGVPSRFSGSGSGTDYTLTISSLQPEDFATYFCQQSEKLPRTFGGGTKVEIRRTVAAPSVFIFPPSDEQLKSGTASVVCLLNNFYPREAKVQWKVDNALQSGNSQESVTEQDSKDSTYSLSSTLTLSKADYEKHKVYACEVTHQGLSSPVTKSFNRGECGGGGSGGGGSGGGGSGGGGSEVQLVQSGAEVKKPGASVKVSCKASGYTFTDSYMSWVRQAPGQGLEWIGDMYPDNGDSSYNQKFRERVTITRDTSTSTAYLELSSLRSEDTAVYYCVLAPRWYFSVWGQGTLVTVSSGGGGSGGGGSGGGGSGGGGSDIQMTQSPSSLSASVGDRVTITCRASQDISNYLNWYQQKPGKAPKLLIYYTSRLRSGVPSRFSGSGSGTDFTLTISSLQPEDFATYYCQQGHTLPPTFGQGTKVEIK
notes: as for B6
- binding result [2]: binds
- EC50 (read off the curve) [3]: ~0.2 µg/mL
